Test results as given in PMC12499500, “Structural Basis of GABAB Receptor Activation during Evolution” (Advanced Science, 2025).

Experiments:
Assay in all cases: cell-based or functional assay
[1] = molecular target: dGB2 4 × GSG (ordered C-terminus 717–728 replaced by four glycine-serine-glycine) (Drosophila melanogaster, UniProt Q9BML6 1-1220, 4 × GSG: residues 717–728 replaced with four consecutive glycine-serine-glycine)
[2] = molecular target: dGB2 12A (ordered C-terminus 717–728 replaced by 12 alanines) (Drosophila melanogaster, UniProt Q9BML6 1-1220, 12A: residues 717–728 replaced with 12 consecutive alanine residues)
Chain of dGB2 12A (ordered C-terminus 717–728 replaced by 12 alanines) (Q9BML6 entry or part of it with the stated changes): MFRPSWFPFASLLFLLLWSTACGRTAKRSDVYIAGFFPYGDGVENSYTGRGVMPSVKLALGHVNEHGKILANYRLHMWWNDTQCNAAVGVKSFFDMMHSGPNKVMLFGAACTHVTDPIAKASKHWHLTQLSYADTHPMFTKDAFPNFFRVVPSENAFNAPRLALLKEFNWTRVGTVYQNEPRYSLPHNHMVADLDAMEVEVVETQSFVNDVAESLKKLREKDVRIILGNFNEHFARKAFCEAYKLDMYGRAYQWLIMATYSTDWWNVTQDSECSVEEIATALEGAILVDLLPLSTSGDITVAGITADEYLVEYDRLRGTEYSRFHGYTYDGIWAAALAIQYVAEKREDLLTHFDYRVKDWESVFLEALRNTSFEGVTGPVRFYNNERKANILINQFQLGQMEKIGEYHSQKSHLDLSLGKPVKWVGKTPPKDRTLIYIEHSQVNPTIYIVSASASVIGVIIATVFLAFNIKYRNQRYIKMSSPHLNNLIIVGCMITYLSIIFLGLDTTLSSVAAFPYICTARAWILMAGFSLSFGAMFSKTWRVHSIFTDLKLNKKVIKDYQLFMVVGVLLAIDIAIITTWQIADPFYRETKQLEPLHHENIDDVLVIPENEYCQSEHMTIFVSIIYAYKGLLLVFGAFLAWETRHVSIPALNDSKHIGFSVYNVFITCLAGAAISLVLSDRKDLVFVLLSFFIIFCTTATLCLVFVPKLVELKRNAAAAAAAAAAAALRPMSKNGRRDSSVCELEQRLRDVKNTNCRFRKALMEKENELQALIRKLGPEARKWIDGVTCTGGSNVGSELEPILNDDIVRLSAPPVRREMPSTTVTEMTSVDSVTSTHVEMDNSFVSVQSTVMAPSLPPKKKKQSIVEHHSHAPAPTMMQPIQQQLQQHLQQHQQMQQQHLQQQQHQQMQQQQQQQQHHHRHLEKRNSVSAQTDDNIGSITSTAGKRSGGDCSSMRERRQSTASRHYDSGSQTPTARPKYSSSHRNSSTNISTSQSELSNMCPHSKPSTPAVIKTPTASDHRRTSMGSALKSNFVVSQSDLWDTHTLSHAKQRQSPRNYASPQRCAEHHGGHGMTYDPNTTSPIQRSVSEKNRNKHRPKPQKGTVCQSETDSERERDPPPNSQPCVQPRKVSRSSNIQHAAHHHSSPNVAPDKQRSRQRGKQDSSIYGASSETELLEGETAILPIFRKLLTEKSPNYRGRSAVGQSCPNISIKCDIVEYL

[3] = molecular target: T1, human GB2 Δ772 (human, UniProt O75899 42-772)
T1 sequence (looked up): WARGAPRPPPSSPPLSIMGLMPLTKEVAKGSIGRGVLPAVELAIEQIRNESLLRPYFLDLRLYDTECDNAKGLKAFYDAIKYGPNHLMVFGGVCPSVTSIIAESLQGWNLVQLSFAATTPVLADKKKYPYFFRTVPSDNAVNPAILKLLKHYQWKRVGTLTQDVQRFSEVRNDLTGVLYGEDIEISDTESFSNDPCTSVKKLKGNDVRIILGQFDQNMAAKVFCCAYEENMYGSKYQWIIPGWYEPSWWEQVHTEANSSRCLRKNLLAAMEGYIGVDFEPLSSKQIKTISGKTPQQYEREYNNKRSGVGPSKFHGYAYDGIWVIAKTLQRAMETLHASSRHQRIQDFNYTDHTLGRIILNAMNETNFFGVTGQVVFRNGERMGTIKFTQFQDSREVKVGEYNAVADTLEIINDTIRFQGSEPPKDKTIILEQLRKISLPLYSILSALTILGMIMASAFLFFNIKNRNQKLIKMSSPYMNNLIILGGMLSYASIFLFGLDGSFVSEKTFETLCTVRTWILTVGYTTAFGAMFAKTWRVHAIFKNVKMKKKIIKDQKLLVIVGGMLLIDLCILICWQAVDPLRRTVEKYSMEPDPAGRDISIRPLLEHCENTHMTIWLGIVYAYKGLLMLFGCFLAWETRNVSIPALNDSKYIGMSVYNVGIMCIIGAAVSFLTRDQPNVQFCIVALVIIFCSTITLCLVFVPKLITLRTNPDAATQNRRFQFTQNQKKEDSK

[4] = molecular target: T2, human GB2 Δ753 (human, UniProt O75899 42-753)
T2 sequence (looked up): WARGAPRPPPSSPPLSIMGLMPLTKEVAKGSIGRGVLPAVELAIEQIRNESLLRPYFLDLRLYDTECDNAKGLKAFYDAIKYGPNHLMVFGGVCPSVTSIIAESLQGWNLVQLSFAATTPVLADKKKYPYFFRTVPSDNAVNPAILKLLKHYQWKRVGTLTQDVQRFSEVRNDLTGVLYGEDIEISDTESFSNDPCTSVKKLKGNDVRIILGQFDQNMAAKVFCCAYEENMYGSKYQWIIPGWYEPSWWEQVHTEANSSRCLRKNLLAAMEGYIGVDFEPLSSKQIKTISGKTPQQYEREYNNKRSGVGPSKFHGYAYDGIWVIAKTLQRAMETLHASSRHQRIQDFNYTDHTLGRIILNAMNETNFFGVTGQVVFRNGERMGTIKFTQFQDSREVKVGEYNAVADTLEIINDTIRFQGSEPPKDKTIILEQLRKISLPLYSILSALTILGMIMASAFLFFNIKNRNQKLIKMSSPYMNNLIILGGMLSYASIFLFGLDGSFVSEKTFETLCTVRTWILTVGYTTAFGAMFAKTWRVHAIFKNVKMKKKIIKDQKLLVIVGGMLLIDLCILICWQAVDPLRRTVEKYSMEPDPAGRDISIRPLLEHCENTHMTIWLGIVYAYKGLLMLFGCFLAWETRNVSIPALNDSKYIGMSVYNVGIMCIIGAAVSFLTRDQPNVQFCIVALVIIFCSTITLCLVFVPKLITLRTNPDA

[5] = molecular target: T3, human GB2 Δ765 (human, UniProt O75899 42-765)
T3 sequence (looked up): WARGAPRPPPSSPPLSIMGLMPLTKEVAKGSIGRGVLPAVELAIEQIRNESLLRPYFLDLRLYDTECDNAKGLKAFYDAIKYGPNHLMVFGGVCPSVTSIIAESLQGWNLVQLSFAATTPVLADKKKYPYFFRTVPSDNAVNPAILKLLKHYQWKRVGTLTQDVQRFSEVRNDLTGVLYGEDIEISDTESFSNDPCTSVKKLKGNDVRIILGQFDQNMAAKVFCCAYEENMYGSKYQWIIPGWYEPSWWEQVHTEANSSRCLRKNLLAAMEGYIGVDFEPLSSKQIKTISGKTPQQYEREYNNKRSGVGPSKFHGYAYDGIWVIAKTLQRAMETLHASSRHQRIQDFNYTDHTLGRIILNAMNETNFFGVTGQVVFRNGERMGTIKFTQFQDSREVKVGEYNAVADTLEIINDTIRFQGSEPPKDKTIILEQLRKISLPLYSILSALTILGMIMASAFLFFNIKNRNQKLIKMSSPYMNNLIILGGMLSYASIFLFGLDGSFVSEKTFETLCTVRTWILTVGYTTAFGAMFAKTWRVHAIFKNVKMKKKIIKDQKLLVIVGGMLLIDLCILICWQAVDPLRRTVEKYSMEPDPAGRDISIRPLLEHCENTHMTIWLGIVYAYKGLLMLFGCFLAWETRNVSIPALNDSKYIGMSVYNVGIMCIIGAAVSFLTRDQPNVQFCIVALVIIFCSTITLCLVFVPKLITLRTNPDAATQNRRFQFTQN

[6] = molecular target: T4, human GB2 Δ760 (human, UniProt O75899 42-760)
T4 sequence (looked up): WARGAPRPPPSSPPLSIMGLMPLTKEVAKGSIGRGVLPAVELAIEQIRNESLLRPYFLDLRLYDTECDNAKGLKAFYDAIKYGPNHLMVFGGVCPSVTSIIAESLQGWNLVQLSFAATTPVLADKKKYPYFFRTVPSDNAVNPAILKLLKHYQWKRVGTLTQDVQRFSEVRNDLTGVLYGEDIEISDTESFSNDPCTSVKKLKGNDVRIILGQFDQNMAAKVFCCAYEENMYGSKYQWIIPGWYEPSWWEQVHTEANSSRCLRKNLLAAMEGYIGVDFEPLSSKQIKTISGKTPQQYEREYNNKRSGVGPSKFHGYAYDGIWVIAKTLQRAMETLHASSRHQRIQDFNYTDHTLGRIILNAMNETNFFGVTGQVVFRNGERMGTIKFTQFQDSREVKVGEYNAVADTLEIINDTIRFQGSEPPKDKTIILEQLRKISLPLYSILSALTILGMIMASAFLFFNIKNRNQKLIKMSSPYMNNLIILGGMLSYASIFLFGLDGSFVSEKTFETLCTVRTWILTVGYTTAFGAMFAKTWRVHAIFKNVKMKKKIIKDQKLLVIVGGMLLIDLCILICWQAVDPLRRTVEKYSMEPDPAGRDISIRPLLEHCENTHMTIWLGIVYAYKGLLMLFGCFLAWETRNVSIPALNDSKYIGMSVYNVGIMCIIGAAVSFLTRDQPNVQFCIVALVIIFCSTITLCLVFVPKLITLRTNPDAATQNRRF

Chain of dGB2 4 × GSG (ordered C-terminus 717–728 replaced by four glycine-serine-glycine) (Q9BML6 entry or part of it with the stated changes): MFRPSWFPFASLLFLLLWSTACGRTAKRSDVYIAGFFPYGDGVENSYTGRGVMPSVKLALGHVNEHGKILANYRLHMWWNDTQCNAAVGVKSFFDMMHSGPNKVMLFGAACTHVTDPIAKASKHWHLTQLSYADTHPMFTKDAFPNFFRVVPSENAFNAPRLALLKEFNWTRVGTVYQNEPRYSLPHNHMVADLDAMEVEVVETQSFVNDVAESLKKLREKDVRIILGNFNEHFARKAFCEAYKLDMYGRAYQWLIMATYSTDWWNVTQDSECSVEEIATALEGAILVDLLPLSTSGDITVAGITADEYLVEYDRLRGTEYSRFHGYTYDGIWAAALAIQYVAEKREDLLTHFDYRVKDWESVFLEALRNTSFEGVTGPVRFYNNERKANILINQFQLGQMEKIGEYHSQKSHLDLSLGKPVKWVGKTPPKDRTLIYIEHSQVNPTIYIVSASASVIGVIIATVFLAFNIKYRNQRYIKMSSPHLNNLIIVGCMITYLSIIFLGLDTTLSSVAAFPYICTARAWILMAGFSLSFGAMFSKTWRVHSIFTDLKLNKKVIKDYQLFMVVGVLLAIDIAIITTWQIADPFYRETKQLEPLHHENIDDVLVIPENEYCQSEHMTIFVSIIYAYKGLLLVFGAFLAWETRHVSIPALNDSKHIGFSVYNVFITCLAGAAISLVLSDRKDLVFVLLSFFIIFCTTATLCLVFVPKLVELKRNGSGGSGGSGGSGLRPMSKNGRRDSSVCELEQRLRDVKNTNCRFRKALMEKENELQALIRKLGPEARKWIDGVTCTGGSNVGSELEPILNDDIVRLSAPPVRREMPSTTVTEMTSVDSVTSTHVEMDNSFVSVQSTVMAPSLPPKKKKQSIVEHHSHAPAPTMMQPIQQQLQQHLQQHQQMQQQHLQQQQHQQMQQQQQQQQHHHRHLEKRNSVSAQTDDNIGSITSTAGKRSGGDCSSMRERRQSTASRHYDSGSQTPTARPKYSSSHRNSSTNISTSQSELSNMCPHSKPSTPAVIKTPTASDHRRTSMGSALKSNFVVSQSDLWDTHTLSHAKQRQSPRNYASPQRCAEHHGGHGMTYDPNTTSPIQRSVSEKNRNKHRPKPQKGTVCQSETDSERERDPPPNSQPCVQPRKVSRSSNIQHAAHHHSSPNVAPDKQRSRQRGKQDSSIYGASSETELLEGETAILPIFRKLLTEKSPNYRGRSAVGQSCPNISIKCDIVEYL

B1: dominant-negative Gαi1 (S47N, G203A, E245A, A326S) (natural protein, human)
chain: MGCTLSAEDKAAVERSKMIDRNLREDGEKAAREVKLLLLGAGESGKNTIVKQMKIIHEAGYSEEECKQYKAVVYSNTIQSIIAIIRAMGRLKIDFGDSARADDARQLFVLAGAAEEGFMTAELAGVIKRLWKDSGVQACFNRSREYQLNDSAAYYLNDLDRIAQPNYIPTQQDVLRTRVKTTGIVETHFTFKDLHFKMFDVGAQRSERKKWIHCFEGVTAIIFCVALSDYDLVLAEDEEMNRMHASMKLFDSICNNKWFTDTSIILFLNKKDLFEEKIKKSPLTICYPEYAGSNTYEEAAAYIQCQFEDLNKRKDTKEIYTHFTCSTDTKNVQFVFDAVTDVIIKNNLKDCGLF
Which “BRET assay of GABA-induced dissociation of Gαi1 and Gβγ in HEK293 cells, change of EC50 against wild-type dGB2” value [1] does the source give for B1 here?
Its value is 3 fold.

And the “BRET assay of GABA-induced dissociation of Gαi1 and Gβγ in HEK293 cells, change of EC50 against wild-type dGB2” value [2]?
Its value is 8.8 fold.

And the “GABA-induced intracellular Ca2+ release (Gqi9), change of EC50 of GABA against wild-type dGB2” value [2]?
The value was 2 fold.

What about the “GABA-induced intracellular Ca2+ release, HEK293 cells co-transfected with GB1ΔCC and the GB2 truncation, increase in EC50 against Δ780 of GB2” value [3] of the same binder?
The value was 6.5 fold.

And the “GABA-induced intracellular Ca2+ release, HEK293 cells co-transfected with GB1ΔCC and the GB2 truncation, increase in EC50 against Δ780 of GB2” value [4]?
Its value is 30.8 fold.

And the “GABA-induced intracellular Ca2+ release, HEK293 cells co-transfected with GB1ΔCC and the GB2 truncation, reduction in E max against Δ780 of GB2” value [4]?
Its value is 76 % reduction in E max.

And the “GABA-induced intracellular Ca2+ release, HEK293 cells co-transfected with GB1ΔCC and the GB2 truncation, increase in EC50 against Δ780 of GB2” value [5]?
Its value is 9.4 fold.

What about the “GABA-induced intracellular Ca2+ release, HEK293 cells co-transfected with GB1ΔCC and the GB2 truncation, reduction in E max against Δ780 of GB2” value [5] of the same binder?
Its value is 22 % reduction in E max.

And the “GABA-induced intracellular Ca2+ release, HEK293 cells co-transfected with GB1ΔCC and the GB2 truncation, increase in EC50 against Δ780 of GB2” value [6]?
The value was 16.2 fold.

And the “GABA-induced intracellular Ca2+ release, HEK293 cells co-transfected with GB1ΔCC and the GB2 truncation, reduction in E max against Δ780 of GB2” value [6]?
Its value is 39 % reduction in E max.
